Measurements as given in publication PMC10219652, “Insights into cargo sorting by SNX32 and its role in neurite outgrowth” (eLife, 2023).
Residue numbers refer to the chain shown, from its start. Names may count otherwise.

Experiments:
GFP-SNX4 [1] = molecular target: GFP-SNX4 (UniProt O95219); test: co-IP; GBP-IP as above with lysates of HeLa cells transiently transfected with wild-type or mutant GFP-SNX4 and HA-SNX32 (legend of Figure 1H); values are the ratio of HA to GFP band intensity
GFP-SNX8 = molecular target: T1, GFP-SNX8 (UniProt Q9Y5X2 1-465); test: co-IP; GFP nanobody-based immunoprecipitation (GBP-IP): GST-GBP on glutathione sepharose beads incubated 2 hr at 4°C with extracts of HEK293T cells overexpressing GFP- and HA-tagged SNX proteins; washed with 1x PBS; immunoblot with anti-HA and anti-GFP; values are the ratio of HA to GFP band intensity; details: partners not purified
T1 construct: Sorting nexin 8 (SNX8); the plasmid is not described in the methods; source: HEK293T, transiently transfected, in lysate
T1 sequence (looked up): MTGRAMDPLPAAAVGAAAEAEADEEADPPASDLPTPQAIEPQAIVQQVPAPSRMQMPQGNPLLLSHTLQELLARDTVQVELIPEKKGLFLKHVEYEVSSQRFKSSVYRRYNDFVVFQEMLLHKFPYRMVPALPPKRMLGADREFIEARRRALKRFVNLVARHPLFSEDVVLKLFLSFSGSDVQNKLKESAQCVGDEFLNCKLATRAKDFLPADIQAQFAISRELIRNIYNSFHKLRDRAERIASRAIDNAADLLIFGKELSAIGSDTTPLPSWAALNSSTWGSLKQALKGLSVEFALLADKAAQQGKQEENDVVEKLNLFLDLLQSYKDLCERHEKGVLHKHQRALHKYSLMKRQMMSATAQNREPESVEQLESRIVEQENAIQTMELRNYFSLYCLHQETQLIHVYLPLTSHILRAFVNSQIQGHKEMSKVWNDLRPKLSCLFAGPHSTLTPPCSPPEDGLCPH

GFP-SNX32 = molecular target: T2, GFP-SNX32 (UniProt Q86XE0-1 1-403); test: as above; details: partners not purified
T2 construct: Sorting nexin 32 (SNX32, SNX6b); pEGFP C1 SNX32 FL, gift of P. J. Cullen; also called GFP-SNX32 WT; pEGFP C1 SNX32 FL; source: HEK293T or HeLa, transiently transfected, in lysate
T2 sequence (looked up): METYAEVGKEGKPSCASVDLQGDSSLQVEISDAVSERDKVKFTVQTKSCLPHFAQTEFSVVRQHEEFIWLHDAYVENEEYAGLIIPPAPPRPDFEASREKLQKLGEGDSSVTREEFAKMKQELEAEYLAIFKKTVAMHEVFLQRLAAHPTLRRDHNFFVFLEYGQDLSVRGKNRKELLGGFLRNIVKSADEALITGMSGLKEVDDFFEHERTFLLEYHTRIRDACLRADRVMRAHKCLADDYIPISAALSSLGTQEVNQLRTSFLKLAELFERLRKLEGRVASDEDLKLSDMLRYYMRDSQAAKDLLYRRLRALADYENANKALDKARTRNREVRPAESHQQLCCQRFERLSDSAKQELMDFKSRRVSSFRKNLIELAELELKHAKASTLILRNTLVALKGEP

GFP-SNX1 = molecular target: T3, GFP-SNX1 (UniProt Q13596-1 1-522); test: as above; details: partners not purified
T3 construct: Sorting nexin 1 (SNX1); pEGFP C1 SNX1, gift of P. J. Cullen; also called GFP-SNX1 WT; pEGFP C1 SNX1

GFP-SNX4, O95219 = molecular target: T4, GFP-SNX4, O95219; test: as above; details: remark: other sources report otherwise
T4 chain: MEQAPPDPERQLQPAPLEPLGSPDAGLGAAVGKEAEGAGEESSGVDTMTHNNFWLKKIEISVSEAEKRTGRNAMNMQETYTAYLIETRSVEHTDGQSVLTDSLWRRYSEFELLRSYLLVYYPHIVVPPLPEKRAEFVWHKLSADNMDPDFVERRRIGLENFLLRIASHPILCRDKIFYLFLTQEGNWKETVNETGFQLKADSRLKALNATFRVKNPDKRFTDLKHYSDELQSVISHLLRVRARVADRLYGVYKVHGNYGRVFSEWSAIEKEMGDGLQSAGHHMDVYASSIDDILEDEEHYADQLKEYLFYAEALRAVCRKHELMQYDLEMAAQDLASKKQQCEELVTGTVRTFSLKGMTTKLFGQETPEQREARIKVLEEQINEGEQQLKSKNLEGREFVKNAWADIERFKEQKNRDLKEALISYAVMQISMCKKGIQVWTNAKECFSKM

GFP-SNX4 [2] = molecular target: T5, GFP-SNX4 (UniProt O95219-1 1-450); test: co-IP; GBP-IP as above with lysates of HeLa cells transiently transfected with wild-type or mutant GFP-SNX4 and HA-SNX32 (legend of Figure 1H); values are the ratio of HA to GFP band intensity; details: partners not purified
T5 construct: Sorting nexin 4 (SNX4); pEGFP C1 SNX4, gift of P. J. Cullen; also called GFP-SNX4 WT; pEGFP C1 SNX4; source: HEK293T or HeLa, transiently transfected, in lysate
T5 sequence (looked up): T4 chain

T3 sequence (Q13596 whole entry): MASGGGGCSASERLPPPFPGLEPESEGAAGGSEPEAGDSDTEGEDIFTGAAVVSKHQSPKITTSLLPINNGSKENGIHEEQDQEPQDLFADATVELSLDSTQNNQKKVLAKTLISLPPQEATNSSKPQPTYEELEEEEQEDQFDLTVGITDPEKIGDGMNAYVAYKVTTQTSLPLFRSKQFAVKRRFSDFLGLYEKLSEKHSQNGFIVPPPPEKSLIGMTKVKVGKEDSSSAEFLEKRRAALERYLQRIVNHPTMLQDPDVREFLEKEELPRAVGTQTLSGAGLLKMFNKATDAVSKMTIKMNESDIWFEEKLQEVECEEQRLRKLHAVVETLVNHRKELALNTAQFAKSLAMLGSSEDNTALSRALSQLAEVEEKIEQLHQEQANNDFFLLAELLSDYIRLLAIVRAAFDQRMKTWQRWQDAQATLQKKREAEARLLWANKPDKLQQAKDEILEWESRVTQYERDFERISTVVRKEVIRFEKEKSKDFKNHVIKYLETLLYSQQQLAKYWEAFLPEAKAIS

Molecule: HA-SNX32 A226E (from UniProt Q86XE0-1 1-403) (natural protein)
- ratio of HA to GFP band intensity (GFP-SNX4 [1]): 0.65

B1: HA-SNX32 full-length (FL) (natural protein, UniProt Q86XE0-1 1-403, looked up)
chain: T2 sequence (looked up)
notes: Sorting nexin 32 (SNX32, SNX6b); pcDNA3 HA N(I)-SNX32 FL subcloned from pEGFP C1-SNX32FL; also called HA-SNX32FL; HA-SNX32 WT; source: HEK293T or HeLa, transiently transfected, in lysate
- ratio of HA to GFP band intensity (GFP-SNX8): 0.62
- ratio of HA to GFP band intensity (GFP-SNX32): 0.85
- ratio of HA to GFP band intensity (GFP-SNX1): 0.98
- ratio of HA to GFP band intensity (GFP-SNX4, O95219): 0.92

B2: HA-SNX32 R366E (natural protein, UniProt Q86XE0-1 1-403, looked up)
chain: T2 sequence (looked up) with R366E
notes: Sorting nexin 32 (SNX32) with a point mutation, made by site-directed mutagenesis of HA-tagged SNX32; also called pcDNA3 HA N(I)-SNX32 R366E; source: HeLa, transiently transfected, in lysate
- ratio of HA to GFP band intensity (GFP-SNX4 [2]): 0.49

B3: HA-SNX32 E256R (natural protein, UniProt Q86XE0-1 1-403, looked up)
chain: T2 sequence (looked up) with E256R
notes: Sorting nexin 32 (SNX32) with a point mutation, made by site-directed mutagenesis of HA-tagged SNX32; also called pcDNA3 HA N(I)-SNX32E256R; source: HeLa, transiently transfected, in lysate
- ratio of HA to GFP band intensity (GFP-SNX4 [2]): 0.66

B4: HA-SNX32 Q259R (natural protein, UniProt Q86XE0-1 1-403, looked up)
chain: T2 sequence (looked up) with Q259R
notes: Sorting nexin 32 (SNX32) with a point mutation, made by site-directed mutagenesis of HA-tagged SNX32; also called pcDNA3 HA N(I)-SNX32 Q259R; source: HeLa, transiently transfected, in lysate
- ratio of HA to GFP band intensity (GFP-SNX4 [2]): 0.75

B5: HA-SNX32 R220E (natural protein, UniProt Q86XE0-1 1-403, looked up)
chain: T2 sequence (looked up) with R220E
notes: Sorting nexin 32 (SNX32) with a point mutation, made by site-directed mutagenesis of HA-tagged SNX32; also called pcDNA3 HA N(I)-SNX32 R220E; source: HeLa, transiently transfected, in lysate
- ratio of HA to GFP band intensity (GFP-SNX4 [2]): 1.02
